Data on 4 variants can be found in IntAct's records for PubMed 31515488.

The chains are these.
B1: Progranulin (Homo sapiens), P28799 (parent)
chain: MWTLVSWVALTAGLVAGTRCPDGQFCPVACCLDPGGASYSCCRPLLDKWPTTLSRHLGGPCQVDAHCSAGHSCIFTVSGTSSCCPFPEAVACGDGHHCCPRGFHCSADGRSCFQRSGNNSVGAIQCPDSQFECPDFSTCCVMVDGSWGCCPMPQASCCEDRVHCCPHGAFCDLVHTRCITPTGTHPLAKKLPAQRTNRAVALSSSVMCPDARSRCPDGSTCCELPSGKYGCCPMPNATCCSDHLHCCPQDTVCDLIQSKCLSKENATTDLLTKLPAHTVGDVKCDMEVSCPDGYTCCRLQSGAWGCCPFTQAVCCEDHIHCCPAGFTCDTQKGTCEQGPHQVPWMEKAPAHLSLPDPQALKRDVPCDNVSSCPSSDTCCQLTSGEWGCCPIPEAVCCSDHQHCCPQGYTCVAEGQCQRGSEIVAGLEKMPARRASLSHPRDIGCDQHTSCPVGQTCCPSLGGSWACCQLPHAVCCEDRQHCCPAGYTCNVKARSCEKEVVSAQPATFLARSPHVGVKDVECGEGHFCHDNQTCCRDNRQGWACCPYRQGVCCADRRHCCPAGFRCAARGTKCLRREAPRWDAPLRDPALRQLL
B2: Keratin, type II cytoskeletal 6A (Homo sapiens), P02538 (parent)
chain: MASTSTTIRSHSSSRRGFSANSARLPGVSRSGFSSVSVSRSRGSGGLGGACGGAGFGSRSLYGLGGSKRISIGGGSCAISGGYGSRAGGSYGFGGAGSGFGFGGGAGIGFGLGGGAGLAGGFGGPGFPVCPPGGIQEVTVNQSLLTPLNLQIDPTIQRVRAEEREQIKTLNNKFASFIDKVRFLEQQNKVLETKWTLLQEQGTKTVRQNLEPLFEQYINNLRRQLDSIVGERGRLDSELRGMQDLVEDFKNKYEDEINKRTAAENEFVTLKKDVDAAYMNKVELQAKADTLTDEINFLRALYDAELSQMQTHISDTSVVLSMDNNRNLDLDSIIAEVKAQYEEIAQRSRAEAESWYQTKYEELQVTAGRHGDDLRNTKQEIAEINRMIQRLRSEIDHVKKQCANLQAAIADAEQRGEMALKDAKNKLEGLEDALQKAKQDLARLLKEYQELMNVKLALDVEIATYRKLLEGEECRLNGEGVGQVNISVVQSTVSSGYGGASGVGSGLGLGGGSSYSYGSGLGVGGGFSSSSGRAIGGGLSSVGGGSSTIKYTTTSSSSRKSYKH
partner: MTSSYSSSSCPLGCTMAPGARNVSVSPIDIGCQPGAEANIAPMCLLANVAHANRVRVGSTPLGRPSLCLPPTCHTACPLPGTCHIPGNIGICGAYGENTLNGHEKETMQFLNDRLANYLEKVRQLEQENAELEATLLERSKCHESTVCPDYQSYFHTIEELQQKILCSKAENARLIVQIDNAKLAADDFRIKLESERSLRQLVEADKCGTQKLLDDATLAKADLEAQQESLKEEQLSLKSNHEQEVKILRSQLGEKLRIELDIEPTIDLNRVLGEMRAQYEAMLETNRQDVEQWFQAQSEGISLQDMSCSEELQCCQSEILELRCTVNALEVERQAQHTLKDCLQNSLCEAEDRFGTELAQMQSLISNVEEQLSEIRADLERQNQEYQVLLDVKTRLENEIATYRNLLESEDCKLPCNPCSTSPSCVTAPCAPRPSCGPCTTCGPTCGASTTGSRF

In the first assay the parent is B1. The settings on record: with hxa1_human HOXA1, P49639.
hxa1_human HOXA1, P49639, sequence (P49639 whole entry): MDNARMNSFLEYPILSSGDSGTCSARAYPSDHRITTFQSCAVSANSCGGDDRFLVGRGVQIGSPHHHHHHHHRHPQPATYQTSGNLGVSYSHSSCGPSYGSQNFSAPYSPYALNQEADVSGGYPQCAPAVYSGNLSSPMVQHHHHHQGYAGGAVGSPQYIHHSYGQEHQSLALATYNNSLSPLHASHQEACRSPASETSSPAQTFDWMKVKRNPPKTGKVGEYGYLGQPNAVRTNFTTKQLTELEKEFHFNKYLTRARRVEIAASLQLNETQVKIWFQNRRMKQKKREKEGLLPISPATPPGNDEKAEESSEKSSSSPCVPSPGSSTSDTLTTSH
Take MWTLVSWVALTAGLVAGTRCPDGQFCPVACCLDPGGASYSCCRPLLDKWPTTLSRHLGGPCQVDAHCSAGHSCIFTVSGTSSCCPFPEAVACGDGHHCCPRGFHCSADGRSCFQRSGNNSVGAIQCPDSQFECPDFSTCCVMVDGSWGCCPMPQASCCEDRVHCCPHGAFCDLVHTRCITPTGTHPLAKKLPAQRTNRAVALSSSVMCPDARSRCPDGSTCCELPSGKYGCCPMPNATCCSDHLHCCPQDTVCDLIQSKCLSKENATTDLLTKLPAHTVGDVKCDMEVSCPDGYTCCRLQSGAWGCCPFTQAVCCEDHIHCCPAGFTCDTQKGTCEQGPHQVPWMEKAPAHLSLPDPQALKRDVPCDNVSSCPSSDTCCQLTSGEWGCCPIPEAVCCSDHQHCCPQGYTCVAEGQCQRGSEIVAGLEKMPARRASLSHPRDIGCDQHTSCPVGQTCCPSLGGSWACCQLPHAVCCEDRQHCCPAGYTCNVKARSCEKEVVSAQPATFLARSPHVGVKDVECGEGHFCHDNQTCCRENRQGWACCPYRQGVCCADRRHCCPAGFRCAARGTKCLRREAPRWDAPLRDPALRQLL [D536E]: the “effect of a mutation on the interaction” value is “with no effect”. Same read-out and setting: then MWTLVSWVALTAGLVAGTRCPDGQFCPVACCLDPGGASYSCCRPLLDKWPTTLSRHLGGPCQVDAHCSAGHSCIFTVSGTSSCCPFPEAVACGDGHHCCPRGFHCSADGRSCFQRSGNNSVGAIQCPDSQFECPDFSTCCVMVDGSWGCCPMPQASCCEDRVHCCPHGAFCDLVHTRCITPTGTHPLAKKLPAQRTNRAVALSSSVMCPDARSRCPDGSTCCELPSGKYGCCPMPNATCCSDHLHCCPQDTVCDLIQSKCLSKENATTDLLTKLPAHTVGDVKCDMEVSCPDGYTCCRLQSGAWGCCPFTQAVCCEDHIHCCPAGFTCDTQKGTCEQGPHQVPWMEKAPAHLSLPDPQALKRDVPCDNVSSCPSSDTCCQLTSGEWGCCPIPEAVCCSDHQHCCPQGYTCVAEGQCQRGSEIVAGLEKMPARWASLSHPRDIGCDQHTSCPVGQTCCPSLGGSWACCQLPHAVCCEDRQHCCPAGYTCNVKARSCEKEVVSAQPATFLARSPHVGVKDVECGEGHFCHDNQTCCRDNRQGWACCPYRQGVCCADRRHCCPAGFRCAARGTKCLRREAPRWDAPLRDPALRQLL [R433W], with “with no effect”.

The variants in another assay derive from B1. The following applies: with glrx3_human GLRX3, O76003.
glrx3_human GLRX3, O76003, sequence (O76003 whole entry): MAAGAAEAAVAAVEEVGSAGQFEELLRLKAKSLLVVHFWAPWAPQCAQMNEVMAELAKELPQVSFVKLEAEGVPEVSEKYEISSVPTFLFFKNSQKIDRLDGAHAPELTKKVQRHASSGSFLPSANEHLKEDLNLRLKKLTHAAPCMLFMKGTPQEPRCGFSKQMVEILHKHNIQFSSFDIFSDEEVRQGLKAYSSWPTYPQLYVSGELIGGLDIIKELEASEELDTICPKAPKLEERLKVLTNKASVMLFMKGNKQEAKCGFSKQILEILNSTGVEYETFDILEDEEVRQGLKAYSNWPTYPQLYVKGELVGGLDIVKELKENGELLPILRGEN
For the variant MWTLVSWVALTAGLVAGTRCPDGQFCPVACCLDPGGASYSCCRPLLDKWPTTLSRHLGGPCQVDAHCSAGHSCIFTVSGTSSCCPFPEAVACGDGHHCCPRGFHCSADGRSCFQRSGNNSVGAIQCPDSQFECPDFSTCCVMVDGSWGCCPMPQASCCEDRVHCCPHGAFCDLVHTRCITPTGTHPLAKKLPAQRTNRAVALSSSVMCPDARSRCPDGSTCCELPSGKYGCCPMPNATCCSDHLHCCPQDTVCDLIQSKCLSKENATTDLLTKLPAHTVGDVKCDMEVSCPDGYTCCRLQSGAWGCCPFTQAVCCEDHIHCCPAGFTCDTQKGTCEQGPHQVPWMEKAPAHLSLPDPQALKRDVPCDNVSSCPSSDTCCQLTSGEWGCCPIPEAVCCSDHQHCCPQGYTCVAEGQCQRGSEIVAGLEKMPARRASLSHPRDIGCDQHTSCPVGQTCCPSLGGSWACCQLPHAVCCEDRQHCCPAGYTCNVKARSCEKEVVSAQPATFLARSPHVGVKDVECGEGHFCHDNQTCCRENRQGWACCPYRQGVCCADRRHCCPAGFRCAARGTKCLRREAPRWDAPLRDPALRQLL [D536E], the “effect of a mutation on the interaction” value is recorded as “with no effect”. Same read-out and setting: then MWTLVSWVALTAGLVAGTRCPDGQFCPVACCLDPGGASYSCCRPLLDKWPTTLSRHLGGPCQVDAHCSAGHSCIFTVSGTSSCCPFPEAVACGDGHHCCPRGFHCSADGRSCFQRSGNNSVGAIQCPDSQFECPDFSTCCVMVDGSWGCCPMPQASCCEDRVHCCPHGAFCDLVHTRCITPTGTHPLAKKLPAQRTNRAVALSSSVMCPDARSRCPDGSTCCELPSGKYGCCPMPNATCCSDHLHCCPQDTVCDLIQSKCLSKENATTDLLTKLPAHTVGDVKCDMEVSCPDGYTCCRLQSGAWGCCPFTQAVCCEDHIHCCPAGFTCDTQKGTCEQGPHQVPWMEKAPAHLSLPDPQALKRDVPCDNVSSCPSSDTCCQLTSGEWGCCPIPEAVCCSDHQHCCPQGYTCVAEGQCQRGSEIVAGLEKMPARWASLSHPRDIGCDQHTSCPVGQTCCPSLGGSWACCQLPHAVCCEDRQHCCPAGYTCNVKARSCEKEVVSAQPATFLARSPHVGVKDVECGEGHFCHDNQTCCRDNRQGWACCPYRQGVCCADRRHCCPAGFRCAARGTKCLRREAPRWDAPLRDPALRQLL [R433W], with “with no effect”.

In a further assay the parent is B1. The settings on record: with sgta_human SGTA.
As for MWTLVSWVALTAGLVAGTWCPDGQFCPVACCLDPGGASYSCCRPLLDKWPTTLSRHLGGPCQVDAHCSAGHSCIFTVSGTSSCCPFPEAVACGDGHHCCPRGFHCSADGRSCFQRSGNNSVGAIQCPDSQFECPDFSTCCVMVDGSWGCCPMPQASCCEDRVHCCPHGAFCDLVHTRCITPTGTHPLAKKLPAQRTNRAVALSSSVMCPDARSRCPDGSTCCELPSGKYGCCPMPNATCCSDHLHCCPQDTVCDLIQSKCLSKENATTDLLTKLPAHTVGDVKCDMEVSCPDGYTCCRLQSGAWGCCPFTQAVCCEDHIHCCPAGFTCDTQKGTCEQGPHQVPWMEKAPAHLSLPDPQALKRDVPCDNVSSCPSSDTCCQLTSGEWGCCPIPEAVCCSDHQHCCPQGYTCVAEGQCQRGSEIVAGLEKMPARRASLSHPRDIGCDQHTSCPVGQTCCPSLGGSWACCQLPHAVCCEDRQHCCPAGYTCNVKARSCEKEVVSAQPATFLARSPHVGVKDVECGEGHFCHDNQTCCRDNRQGWACCPYRQGVCCADRRHCCPAGFRCAARGTKCLRREAPRWDAPLRDPALRQLL [R19W], the “effect of a mutation on the interaction” value was “with no effect”.

The variants in the next assay derive from B1. The settings on record: with otx1_human OTX1, P32242.
otx1_human OTX1, P32242, sequence (P32242 whole entry): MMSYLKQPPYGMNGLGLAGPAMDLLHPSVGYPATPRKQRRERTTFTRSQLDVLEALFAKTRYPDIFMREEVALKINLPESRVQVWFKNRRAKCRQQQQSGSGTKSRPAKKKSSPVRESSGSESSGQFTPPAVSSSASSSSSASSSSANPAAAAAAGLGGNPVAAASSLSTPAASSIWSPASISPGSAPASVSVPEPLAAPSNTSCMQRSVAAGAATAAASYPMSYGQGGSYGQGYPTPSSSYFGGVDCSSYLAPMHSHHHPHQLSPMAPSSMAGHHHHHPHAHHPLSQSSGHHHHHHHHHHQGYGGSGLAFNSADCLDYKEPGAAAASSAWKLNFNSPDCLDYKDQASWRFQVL
MWTLVSWVALTAGLVAGTWCPDGQFCPVACCLDPGGASYSCCRPLLDKWPTTLSRHLGGPCQVDAHCSAGHSCIFTVSGTSSCCPFPEAVACGDGHHCCPRGFHCSADGRSCFQRSGNNSVGAIQCPDSQFECPDFSTCCVMVDGSWGCCPMPQASCCEDRVHCCPHGAFCDLVHTRCITPTGTHPLAKKLPAQRTNRAVALSSSVMCPDARSRCPDGSTCCELPSGKYGCCPMPNATCCSDHLHCCPQDTVCDLIQSKCLSKENATTDLLTKLPAHTVGDVKCDMEVSCPDGYTCCRLQSGAWGCCPFTQAVCCEDHIHCCPAGFTCDTQKGTCEQGPHQVPWMEKAPAHLSLPDPQALKRDVPCDNVSSCPSSDTCCQLTSGEWGCCPIPEAVCCSDHQHCCPQGYTCVAEGQCQRGSEIVAGLEKMPARRASLSHPRDIGCDQHTSCPVGQTCCPSLGGSWACCQLPHAVCCEDRQHCCPAGYTCNVKARSCEKEVVSAQPATFLARSPHVGVKDVECGEGHFCHDNQTCCRDNRQGWACCPYRQGVCCADRRHCCPAGFRCAARGTKCLRREAPRWDAPLRDPALRQLL [R19W]: the “effect of a mutation on the interaction” value is “with no effect”.

In another assay the parent is B2. The settings on record: with krt38_human KRT38, O76015.
With MASTSTTIRSHSSSRRGFSANSARLPGVSRSGFSSVSVSRSRGSGGLGGACGGAGFGSRSLYGLGGSKRISIGGGSCAISGGYGSRAGGSYGFGGAGSGFGFGGGAGIGFGLGGGAGLAGGFGGPGFPVCPPGGIQEVTVNQSLLTPLNLQIDSTIQRVRAEEREQIKTLNNKFASFIDKVRFLEQQNKVLETKWTLLQEQGTKTVRQNLEPLFEQYINNLRRQLDSIVGERGRLDSELRGMQDLVEDFKNKYEDEINKRTAAENEFVTLKKDVDAAYMNKVELQAKADTLTDEINFLRALYDAELSQMQTHISDTSVVLSMDNNRNLDLDSIIAEVKAQYEEIAQRSRAEAESWYQTKYEELQVTAGRHGDDLRNTKQEIAEINRMIQRLRSEIDHVKKQCANLQAAIADAEQRGEMALKDAKNKLEGLEDALQKAKQDLARLLKEYQELMNVKLALDVEIATYRKLLEGEECRLNGEGVGQVNISVVQSTVSSGYGGASGVGSGLGLGGGSSYSYGSGLGVGGGFSSSSGRAIGGGLSSVGGGSSTIKYTTTSSSSRKSYKH [P154S], the “effect of a mutation on the interaction” value is reported as “with no effect”.
